Here are results for two molecules from publication PMC10842378 (Cell reports, 2023).

Assay [1] addresses FLAG-AP-DHX15 LML triple mutant L536A/M537A/L540A (human, UniProt O43143 1-795, L536A | M537A | L540A). As to the kind of experiment: proximity labelling.
In the next assay the target is FLAG-AP-DHX15 R222G (human, UniProt O43143 1-795, R222G). As to the kind of experiment: proximity labelling.
FLAG-AP-DHX15 R222G, sequence (O43143 whole entry R222G): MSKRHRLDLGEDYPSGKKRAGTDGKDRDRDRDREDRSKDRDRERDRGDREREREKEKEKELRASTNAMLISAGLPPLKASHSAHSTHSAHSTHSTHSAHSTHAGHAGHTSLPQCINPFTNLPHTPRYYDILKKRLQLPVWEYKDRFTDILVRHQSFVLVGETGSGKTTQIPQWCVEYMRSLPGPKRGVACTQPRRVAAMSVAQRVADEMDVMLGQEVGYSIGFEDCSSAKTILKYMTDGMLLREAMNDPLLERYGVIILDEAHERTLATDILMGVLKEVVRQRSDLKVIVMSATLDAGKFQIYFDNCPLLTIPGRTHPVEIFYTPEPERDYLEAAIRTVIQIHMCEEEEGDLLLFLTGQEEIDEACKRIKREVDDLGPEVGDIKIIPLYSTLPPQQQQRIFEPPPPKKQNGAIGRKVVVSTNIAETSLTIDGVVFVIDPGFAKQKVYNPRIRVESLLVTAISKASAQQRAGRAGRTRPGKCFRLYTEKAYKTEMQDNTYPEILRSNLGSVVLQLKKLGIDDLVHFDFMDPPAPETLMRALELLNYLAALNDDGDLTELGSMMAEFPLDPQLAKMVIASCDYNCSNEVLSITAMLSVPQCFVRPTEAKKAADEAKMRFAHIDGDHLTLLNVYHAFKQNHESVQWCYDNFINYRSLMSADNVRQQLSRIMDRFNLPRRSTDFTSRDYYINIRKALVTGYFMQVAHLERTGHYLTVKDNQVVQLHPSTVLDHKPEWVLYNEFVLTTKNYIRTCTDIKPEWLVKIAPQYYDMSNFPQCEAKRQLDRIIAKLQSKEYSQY

FLAG-AP-DHX15 LML triple mutant L536A/M537A/L540A, sequence (O43143 whole entry L536A/M537A/L540A): as the sequence (O43143 whole entry R222G) above, with G222R, L536A, M537A, L540A counted along it

B1: SF3B1 (natural protein, human (endogenous in HEK293T.A2), UniProt O75533 1-1304, looked up)
chain: MAKIAKTHEDIEAQIREIQGKKAALDEAQGVGLDSTGYYDQEIYGGSDSRFAGYVTSIAATELEDDDDDYSSSTSLLGQKKPGYHAPVALLNDIPQSTEQYDPFAEHRPPKIADREDEYKKHRRTMIISPERLDPFADGGKTPDPKMNARTYMDVMREQHLTKEEREIRQQLAEKAKAGELKVVNGAAASQPPSKRKRRWDQTADQTPGATPKKLSSWDQAETPGHTPSLRWDETPGRAKGSETPGATPGSKIWDPTPSHTPAGAATPGRGDTPGHATPGHGGATSSARKNRWDETPKTERDTPGHGSGWAETPRTDRGGDSIGETPTPGASKRKSRWDETPASQMGGSTPVLTPGKTPIGTPAMNMATPTPGHIMSMTPEQLQAWRWEREIDERNRPLSDEELDAMFPEGYKVLPPPAGYVPIRTPARKLTATPTPLGGMTGFHMQTEDRTMKSVNDQPSGNLPFLKPDDIQYFDKLLVDVDESTLSPEEQKERKIMKLLLKIKNGTPPMRKAALRQITDKAREFGAGPLFNQILPLLMSPTLEDQERHLLVKVIDRILYKLDDLVRPYVHKILVVIEPLLIDEDYYARVEGREIISNLAKAAGLATMISTMRPDIDNMDEYVRNTTARAFAVVASALGIPSLLPFLKAVCKSKKSWQARHTGIKIVQQIAILMGCAILPHLRSLVEIIEHGLVDEQQKVRTISALAIAALAEAATPYGIESFDSVLKPLWKGIRQHRGKGLAAFLKAIGYLIPLMDAEYANYYTREVMLILIREFQSPDEEMKKIVLKVVKQCCGTDGVEANYIKTEILPPFFKHFWQHRMALDRRNYRQLVDTTVELANKVGAAEIISRIVDDLKDEAEQYRKMVMETIEKIMGNLGAADIDHKLEEQLIDGILYAFQEQTTEDSVMLNGFGTVVNALGKRVKPYLPQICGTVLWRLNNKSAKVRQQAADLISRTAVVMKTCQEEKLMGHLGVVLYEYLGEEYPEVLGSILGALKAIVNVIGMHKMTPPIKDLLPRLTPILKNRHEKVQENCIDLVGRIADRGAEYVSAREWMRICFELLELLKAHKKAIRRATVNTFGYIAKAIGPHDVLATLLNNLKVQERQNRVCTTVAIAIVAETCSPFTVLPALMNEYRVPELNVQNGVLKSLSFLFEYIGEMGKDYIYAVTPLLEDALMDRDLVHRQTASAVVQHMSLGVYGFGCEDSLNHLLNYVWPNVFETSPHVIQAVMGALEGLRVAIGPCRMLQYCLQGLFHPARKVRDVYWKIYNSIYIGSQDALIAHYPRIYNDDKNTYIRYELDYIL
On to B1, for which the “level in the streptavidin pull-down (percent)” value in assay [1] was 36%; with FLAG-AP-DHX15 R222G, 76%.

B2: U2AF2 (natural protein, human (endogenous in HEK293T.A2), UniProt P26368 1-475, looked up)
chain: MSDFDEFERQLNENKQERDKENRHRKRSHSRSRSRDRKRRSRSRDRRNRDQRSASRDRRRRSKPLTRGAKEEHGGLIRSPRHEKKKKVRKYWDVPPPGFEHITPMQYKAMQAAGQIPATALLPTMTPDGLAVTPTPVPVVGSQMTRQARRLYVGNIPFGITEEAMMDFFNAQMRLGGLTQAPGNPVLAVQINQDKNFAFLEFRSVDETTQAMAFDGIIFQGQSLKIRRPHDYQPLPGMSENPSVYVPGVVSTVVPDSAHKLFIGGLPNYLNDDQVKELLTSFGPLKAFNLVKDSATGLSKGYAFCEYVDINVTDQAIAGLNGMQLGDKKLLVQRASVGAKNATLVSPPSTINQTPVTLQVPGLMSSQVQMGGHPTEVLCLMNMVLPEELLDDEEYEEIVEDVRDECSKYGLVKSIEIPRPVDGVEVPGCGKIFVEFTSVFDCQKAMQGLTGRKFANRVVVTKYCDPDSYHRRDFW
For the molecule B2, the “level in the streptavidin pull-down (percent)” value in assay [1] turned out to be 47%; in the assay with FLAG-AP-DHX15 R222G, 80%.
